From the DeepSol protein solubility set

Assay: soluble on expression in E. coli; label from the status in PepcDB or PDB records
In the case of “MSSPSFPRVLIFDSGVGGLSVYREIEARLPQLNYIYLFDNAAYPYGELTQETLIARVDTLVTRMVEQERIDLVVIACNTASTIVLPVLRAKLTIPVVGVVPAIKPASLIASKAIGLIATPATVKRQYTQELIRDFSANKNVELLGSTRLVNMAEEKLRGKPLDLEELASILQPLKNTIDVAVLGCTHFPLIKEEIQQVLGEQVQLIDSGLAIARRVQELLGIEQAVGAKQKHRIYASAPPWEESALNIKLEQLGFNPVQPFLHPI”, the “soluble on expression in E. coli” value is reported as “not soluble”. In the case of “MKFWKKGLTAAALLAVAAVTLTACGGSSEKKATEKSEDGKTKLTVTTWNYDTTPEFEKLFRAFEAENPDITIEPVDIASDDYDTKVTTMLSSGDTTDILTMKNLLSYSNYALRNQLVDLTDHVKDLDIEPAKASYEMYEIDGKTYAQPYRTDFWVLYYNKKMFDEAGIAYPDNLTWDEYEALAKKLSKPEEQVYGAYQHTWRSTVQAIAAAQNNANLIEPKYNYMETYYDRALRMQKDQSQMDFGTAKSTKVTYQSQFENSKAAMMYMGSWYMGTLLTNIDDGKTNVEWGIAEIPQQEKGKATTFGSPTSFAINKNSKKQKAAQKFLDFASGKEGAKLLAEVGVVPSYKTDEIDKIYFARKGMPSDEVSQKAFNPDTINLEFPSDKNGAAIDKVLQEEHDLIMVGDEKPKDGIANMEKRVKAEID”, the “soluble on expression in E. coli” value is reported as “not soluble”. In the case of “MGSDKIHHHHHHMDKRIFGIETEFGISYSSPDSRPLAPEEVARYLFRKVVSWGRSSNVFLTNGSRLYLDVGSHPEYATAECDDLGQLIAHDRAGELILDDLVDEAQERLAAEGFNGTVYLFKNNTDSAGNSYGSHENYLIPRRGEFSRLAEILIPFLVTRQLIAGAGKILKTPHGATFAFSQRADHIWEGVSSATTRSRPIINTRDEPHADAEFYRRLHVIVGDSNMSETTALMKVGTVDLILRMIEAGVIMRDMRMENPIRSIREISHDLSGRALIRLANGRQLTALEIQREYLNKVTSFVAENGAHNQHVPLILDLWERTLTAIESGDTSTIDTEIDWAIKKKLMDSYRKRHGLGLDAPRIAQLDLTYHDISRTRGLYYLLQSRGAVRRVVDDTAVKDAVDAPPQTTRAKLRGDFVRRAQELGRDYTVDWVHLKLNDRAHQTILCKDPFRNVDERVDALLDSMG”, the “soluble on expression in E. coli” value is reported as “not soluble”. In the case of “MNIISQNTAFGGMQGVFSHQSETLKSEMTFAVYVPPKAIHEPCPVVWYLSGLTCTHANVMEKGEYRRMASELGLVVVCPDTSPRGNDVPDELTNWQMGKGAGFYLDATEEPWSEHYQMYSYVTEELPALIGQHFRADMSRQSIFGHSMGGHGAMTIALKNPERFKSCSAFAPIVAPSSADWSEPALEKYLGADRAAWRRYDACSLVEDGARFPEFLIDQGKADSFLEKGLRPWLFEEAIKGTDIGLTLRMHDRYDHSYYFISTFMDDHLKWHAERLG”, the “soluble on expression in E. coli” value is reported as “not soluble”. With “MGSDKIHHHHHHMKVTNYQGATIDPYSKGLGMVPGTSIQLTDAARLEWNLLNEDVSLPAAVLYADRVEHNLKWMQAFVAEYGVKLAPHGKTTMAPQLFRRQLETGAWGITLATAHQVRAAYHGGVSRVLMANQLVGRRNMMMVAELLSDPEFEFFCLVDSVEGVEQLGEFFKSVNKQLQVLLELGVPGGRTGVRDAAQRNAVLEAITRYPDTLKLAGVELYEGVLKEEHEVREFLQSAVAVTRELVEQERFARAPAVLSGAGSAWYDVVAEEFVKASETGKVEVVLRPGCYLTHDVGIYRKAQTDIFARNPVAKKMGEGLLPALQLWAYVQSIPEPDRAIIGLGKRDSAFDAGMPEPARHYRPGNEAPRDIAASEGWEIFGLMDQHAYLRIPAGADLKVGDMIAFDISHPCLTFDKWRQVLVVDPAYRVTEVIETFF” the “soluble on expression in E. coli” value was “not soluble”. In the case of “MGHHHHHHSHMSSSAGSGHQPSQSRAIPTRTVAISDAAQLPHDYCTTPGGTLFSTTPGGTRIIYDRKFLLDRRNSPMAQTPPCHLPNIPGVTSPGTLIEDSKVEVNNLNNLNNHDRKHAVGDDAQFEMDI”, the “soluble on expression in E. coli” value is reported as “soluble”. For “MTLLGIKLKQTQQLNQRLQQSLRVLQMSGIELEREVENWLSDNPLLERKDTDEFSDAEFSHYTAPARQIGGDEGEDMLSNIAGEQDFKQYLHAQVCEHPLSDQEAACVHILIDFLDEQGYLTDSIEDILDHTPLEWMLDEAMLQHALTALKKFDPAGVAAADLNESLILQIERLGECAAKPAALHIVRNALDSIDGNRSQTLARIKKHLPQTDSGTLEAALDLIASLNPFPAAGFASSTPTPYSDEALANLLAFRGMEVSRRTIAKYRESFEIPAAHKRKTAE”, the “soluble on expression in E. coli” value was “not soluble”. For “MSLQDTWGGKMNTLGDRVLLCNDKRSLPAAAVATPFLFESMLFSVCTRGYARLLIDSREIEVKEGELLVVMPRKTIEVIESSCFRAFHLCLDKEILALSAIRISGFISIINKLHSNEPFRPERMEKDFLTATLDLIRNALQNGGRHQEEIVIYLISSLFLFLDDMIADEVEKDCKHTRSETICRDFLLLVSEHHKEQHTVKFYADRLCLSSKHLALTIKTVMGQSASKVINSFIIQQAKSLLRYTDKTVQEIGYELNFSTQSFFGKYFKQHTGMSPGEYRSQEARNRQSEES”, the “soluble on expression in E. coli” value was “not soluble”. For “GKAVIAIHGGAGAISRAQMSLQQELRYIEALSAIVETGQKMLEAGESALDVVTEAVRLLEECPLFNAGIGAVFTRDETHELDACVMDGNTLKAGAVAGVSHLRNPVLAARLVMEQSPHVMMIGEGAENFAFARGMERVSPEIFSTSLRYEQLLAARKEGATVLDHSGAPLDEKQKMGAVGAVALDLDGNLAAATSTGGMTNKLPGRVGDSPLVGAGCYANNASVAVSCTGTGEVFIRALAAYDIAALMDYGGLSLAEACERVVMEKLPALGGSGGLIAIDHEGNVALPFNTEGMYRAWGYAGDTPTTGIYREKGDTVATQ”, the “soluble on expression in E. coli” value was “soluble”. With “MSRAEFIRFLQVLEEDLPFRALFQEADPEEILKLADQHGFIFSDEIKGRFLNRWAGVYFCPFANDVGRLCPKMVPEGFSTLLHYSQTTCTKEDKVERFDFRAGGYYEGVKAVTG” the “soluble on expression in E. coli” value was “not soluble”. For “MSLRPNHAAQSLRSRTSKTIGCMFSDVANPLYARAFRALEEHFRREGYMLLLANGLNDAEREIDIIQTFQLRGMDGVILAPGNERHPGVLDAVRRLSMPAVIYDRDLAVDADAVLFDHVAGVKAAIHHLVELGHTRIALALWQVKSRPVRRRIEGYKAAFKAAGLPVPDLILQEPTPTSSAFDDVTRLLQLPDPPTAFLAQGTHTLTSTLRAIAKQGLRVPEDVSVIGIGDTDFAQTYDPPLTVLRTPTDEVAAHAVEMLLSRLAAKGDASLSPRKALIQFDLILRESCAPVAREGHHHHHH”, the “soluble on expression in E. coli” value was “soluble”. With “MTLPPTSIADRIARAQPAFSRTQHRMAEYVLAHQFRVATMTIDEFAVAVGVSVATANRFARVLELPGYPQFRAELARGFESALEPVEKLRIELAHSASAAQVFAATLQEDIHNAQMTLQALDAGACERAVEAILNAERVFIIGFGTSGFLAGLLQRGLCMHLHAVESLAGPGGVSHAARQMSRMTSRDLVIALAFPRYLADTVTLANAAKLAGVPVLVLTDKPTSPLAPCATVALYAHMSRQLSSNAETAALGLIEALSAAVAHRAKNSIAAAAGVAQSVMPWLIHGEAGAGKR” the “soluble on expression in E. coli” value was “not soluble”. For “MGSDKIHHHHHHVQDKNFDKLAQKFAKNIYGTPKGDIRAAVLWRDLAPALAKLGDRKLRVLDAGGGFGYFSQKLARLGHEVVLCDISAEMLAQAQEQIDASPEPLAIQLIHAPIQALSVEQHGYFDIILCHAVVEWLTDAKPTMAGLLTMLKPAGLFSLMFYNKEAMRFHALVSGNFDYVAADLKVKKKVQLTPTHPLYIQEVKEWFSDWQMSLISQSGVRVIHDYLKKSQPVDFDYQKLLQMELEYSQREPYISLGRYVHFLGQSPAV”, the “soluble on expression in E. coli” value was “not soluble”. In the case of “MGSDKIHHHHHHMTMKTRDKILLSSLELFNDKGERNITTNHIAAHLAISPGNLYYHFRNKSDIIYEIFQEYEKLVDYYLDIPEDRPITLEDMTFYLESVFDGLWSYRFFHRDLEYLLDSDPRLRQDYREFTNRCLAAINRIFAKLADAGIIQPQPEDLRSAMSLNVWLVITNWMAFLKTAHAAEEPASLSLTELKQGIYQVLTLEVPYLTPEYRERVLALREKYRPTLPEAQGISGVEA”, the “soluble on expression in E. coli” value is reported as “not soluble”. For “MIAEAAAVEVQANEAPVVAPIMYKVESNDGKVFEISDEAVKQSNILSNLISTCAPEDVASMDPIPITNVTGNILKMVIEWCEKHKGEALPVEDDSVPKNINVPEWDTNFLKIDNEVLFDLIVACNYLDVPGLMNYGCKMVANMAIGKSPDELRIIFAIPTDEEDEAAERAAKEKAEAEKKAIADKDAAEPSTSK”, the “soluble on expression in E. coli” value was “soluble”. With “MVGIRRNKGHGEATIFTLRELADATNNFSTECLLGRGGFGSVYKAFLNDRQVVAVKQLDLNGLQGNREFLVEVLMLSLLHHPNLVKLFGYCVDGDQRLLIYEYMPLGSLEDRLHDLRPGQEPLDWTTRMKIAADAAAGLEYLHDEAIPAVIYRDIKPSNILLGEGYNAKLSDFGLAKLGPVGDKTHVTTRVMGTHGYCAPEYLSTGKLTIKSDIYSFGVVFLELITGRRALDSNRPPDEQDLVAWARPLFKDQRKFPKMADPSLHGHFPKRGLFQALAIAAMCLQEKAKNRPSIREVAVALSYLASQTHESQNTAARHTLPGPSVPRVLDNQINQDTSLPSQHGVHMPPLAGTDHMVQEVKENCRSSSHRPGRGRVTPNGADRERALAEANVWVEAWRRQEKTSKMR” the “soluble on expression in E. coli” value was “not soluble”. With “MGLEVAADSVGSALAAQDGGAIRVELCGGLDGGGLTPSFGTLAVVRERLQIPLYVLIRPRVGDFVFDAAEVEVMRRDVEQCVRLGCDGVVLGALDPQGQVDLPAMRALIEAAGTLGVTFHRAIDVSADPARVLEDAITLGCERVLTSGARASALEGVETIAALVRQAGERISIMPGAGVSAANVQALRAGTGAREFHASARGPVAAQVHAPHPYITDLGGDYQRTDVARVRSIVQLLQTALEHHHHHH” the “soluble on expression in E. coli” value was “not soluble”. In the case of “MGSDKIHHHHHHKAVPLASINGEWNIIEVNGSKVTPGESRTLPFITFDTATGRVSGNSGCNRMMGSFDVNAKPGSMELKGMASTRMMCPDMTTERNVLGALAQVKGYKKAGKDKMFLCNESNRPVVVLEKKEADVKLSVLNGEWKIKEVNGEAITSGMEKQPFIAFDVKKKTLHGNAGCNLINGGFETSTTNAKSISFPGVASTMMACPDMEVEGKILKAMNEVKSFDKLSGGGIGLYDANNALVIVLEK”, the “soluble on expression in E. coli” value is reported as “not soluble”. With “MAATRAYHHGDLRRSVLSAALEVIRSDGVAAISLRDLARRAEVSHAAPAHHFKDKAGLLTAIATEGFELLAAALTAVPAGTTHRLREMGVRYVEFALDHPAHFDVMFRPQLLHVGDPELTAARERASRALASGVEDLPDMRAGLDARRAGLTAWSLAHGFATLQLGGSLPPLDDDPAEAFRALVADRLVVRLP” the “soluble on expression in E. coli” value was “not soluble”. For “MGSDKIHHHHHHMYDATHLFEPPVMTEEEKMERFKERIENGEKIEADDWMPDFYRDTLIKLISMHGISEIMGALPEKEWVPKAPSLRRKLGIMAKVQDEMGHGQLLLRVVEDLMKPYGKTRADLMDDLFTGRLKFHNVFHMPTRSWADAGTIGWLVDGAAIITQTNMLGASYGPYARALQRICAEEVFHAQHGESIIMALAEGTPEQKAMIQESLDEWWESLLMFFGPASKETTGTSKQDVTIAYKIRTKTNEELRQNFFTKYVPRIRSLGLIIPDPTLRFDEETGQWIYAQPDWTEFKKIIQGGCPRSKERLALRQTSYQNNAWVREALAETIG”, the “soluble on expression in E. coli” value was “not soluble”. For “MKASIKGKYDTDKTSGIGSLAFNAGDIKLRATMTDATLVAGPTLTGLALAVEKPGSFIVEYNVPKKDVRFQFMNTVRIAEKPLNLTYIHSRADNRTIVDGSLVIDSANKLSANHMVGTNNCKIKYTYAHGGLATFEPCYDLAKNTWDFAVSRRFYSGDNVRATYQTSSKLLGMEWSRNNKASGFKVCASVNLADELKTPKLTAETTWNLEM”, the “soluble on expression in E. coli” value was “soluble”.
